Among the targets are ti10b_arath TIFY10B (UniProt Q9S7M2); tif5a_arath TIFY5A (UniProt Q8LBM2); tif6b_arath TIFY6B (UniProt Q9LVI4); ti11b_arath TIFY11B (UniProt Q9C9E3); tif3b_arath TIFY3B (UniProt Q9C5K8); tif6a_arath TIFY6A (UniProt Q58G47); tif3a_arath TIFY3A (UniProt Q9M246); ti11a_arath TIFY11A (UniProt Q9LDU5); tif7_arath TIFY7 (UniProt Q8W4J8); ti10a_arath TIFY10A (UniProt Q9LMA8); tif9_arath TIFY9 (UniProt Q93ZM9).

Sequence of Transcription factor MYC3 (Arabidopsis thaliana (Mouse-ear cress)), Q9FIP9 W92A;Y97A (Q9FIP9 whole entry W92A/Y97A): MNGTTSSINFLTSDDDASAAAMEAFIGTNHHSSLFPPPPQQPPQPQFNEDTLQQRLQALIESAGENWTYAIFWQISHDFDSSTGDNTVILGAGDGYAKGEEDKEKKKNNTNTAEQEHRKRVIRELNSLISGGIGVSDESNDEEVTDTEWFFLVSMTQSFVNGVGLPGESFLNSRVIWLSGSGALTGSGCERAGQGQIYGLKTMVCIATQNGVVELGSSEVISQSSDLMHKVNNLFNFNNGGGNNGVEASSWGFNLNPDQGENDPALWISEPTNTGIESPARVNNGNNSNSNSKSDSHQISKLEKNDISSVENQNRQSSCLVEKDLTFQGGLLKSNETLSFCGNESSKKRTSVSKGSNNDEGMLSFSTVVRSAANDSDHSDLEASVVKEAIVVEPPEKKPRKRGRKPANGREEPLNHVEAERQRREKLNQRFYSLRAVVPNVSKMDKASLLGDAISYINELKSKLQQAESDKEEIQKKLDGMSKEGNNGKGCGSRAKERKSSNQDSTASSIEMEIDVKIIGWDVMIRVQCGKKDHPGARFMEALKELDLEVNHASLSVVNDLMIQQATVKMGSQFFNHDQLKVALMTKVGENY
Sequence of tif7_arath TIFY7 (Q8W4J8 whole entry): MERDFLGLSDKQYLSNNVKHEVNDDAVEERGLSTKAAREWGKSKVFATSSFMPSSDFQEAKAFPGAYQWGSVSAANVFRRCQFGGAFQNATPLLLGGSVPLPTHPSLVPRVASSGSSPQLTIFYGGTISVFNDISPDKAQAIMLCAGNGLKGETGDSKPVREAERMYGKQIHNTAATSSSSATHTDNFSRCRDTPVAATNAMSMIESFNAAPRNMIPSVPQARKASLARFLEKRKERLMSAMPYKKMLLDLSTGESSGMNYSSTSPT
Sequence of tif3b_arath TIFY3B (Q9C5K8 whole entry): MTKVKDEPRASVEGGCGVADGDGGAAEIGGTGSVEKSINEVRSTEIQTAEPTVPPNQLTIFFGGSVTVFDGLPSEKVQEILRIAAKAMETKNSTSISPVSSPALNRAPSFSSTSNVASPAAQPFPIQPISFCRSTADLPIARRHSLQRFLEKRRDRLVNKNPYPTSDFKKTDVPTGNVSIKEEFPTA
Sequence of tif9_arath TIFY9 (Q93ZM9 whole entry): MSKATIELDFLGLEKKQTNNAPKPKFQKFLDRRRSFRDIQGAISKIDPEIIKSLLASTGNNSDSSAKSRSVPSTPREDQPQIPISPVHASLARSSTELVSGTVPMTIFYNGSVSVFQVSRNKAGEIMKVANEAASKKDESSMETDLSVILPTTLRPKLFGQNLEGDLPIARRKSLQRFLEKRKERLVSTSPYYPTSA
Sequence of tif6b_arath TIFY6B (Q9LVI4 whole entry): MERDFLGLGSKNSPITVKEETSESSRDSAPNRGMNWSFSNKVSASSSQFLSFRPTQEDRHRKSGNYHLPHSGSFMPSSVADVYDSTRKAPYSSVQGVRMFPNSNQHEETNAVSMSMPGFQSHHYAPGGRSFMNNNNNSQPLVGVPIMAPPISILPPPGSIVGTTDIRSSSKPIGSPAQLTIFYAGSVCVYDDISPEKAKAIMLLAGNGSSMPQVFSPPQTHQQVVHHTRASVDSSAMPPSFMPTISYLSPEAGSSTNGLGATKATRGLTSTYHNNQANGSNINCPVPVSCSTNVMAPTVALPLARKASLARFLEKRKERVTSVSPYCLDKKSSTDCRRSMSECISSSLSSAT
Sequence of tif5a_arath TIFY5A (Q8LBM2 whole entry): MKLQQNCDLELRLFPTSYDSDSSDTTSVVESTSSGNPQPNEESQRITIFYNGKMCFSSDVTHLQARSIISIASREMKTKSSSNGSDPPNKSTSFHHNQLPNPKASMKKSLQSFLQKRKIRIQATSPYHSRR
Sequence of tif3a_arath TIFY3A (Q9M246 whole entry): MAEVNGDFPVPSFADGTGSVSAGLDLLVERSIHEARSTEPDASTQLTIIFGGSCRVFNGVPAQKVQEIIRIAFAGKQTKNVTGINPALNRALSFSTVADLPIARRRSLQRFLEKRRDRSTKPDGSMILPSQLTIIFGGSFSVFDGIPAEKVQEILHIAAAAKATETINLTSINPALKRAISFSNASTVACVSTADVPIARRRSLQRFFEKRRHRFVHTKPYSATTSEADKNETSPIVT
Sequence of tif6a_arath TIFY6A (Q58G47 whole entry): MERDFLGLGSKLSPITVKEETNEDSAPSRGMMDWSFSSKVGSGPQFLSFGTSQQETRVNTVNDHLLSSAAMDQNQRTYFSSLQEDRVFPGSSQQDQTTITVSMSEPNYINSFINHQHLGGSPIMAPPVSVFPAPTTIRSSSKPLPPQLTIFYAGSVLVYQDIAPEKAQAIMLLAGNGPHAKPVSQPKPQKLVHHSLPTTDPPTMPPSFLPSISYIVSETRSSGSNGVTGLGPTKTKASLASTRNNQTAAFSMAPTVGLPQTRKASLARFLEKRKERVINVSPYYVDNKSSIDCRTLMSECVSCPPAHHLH
Sequence of ti10a_arath TIFY10A (Q9LMA8 whole entry): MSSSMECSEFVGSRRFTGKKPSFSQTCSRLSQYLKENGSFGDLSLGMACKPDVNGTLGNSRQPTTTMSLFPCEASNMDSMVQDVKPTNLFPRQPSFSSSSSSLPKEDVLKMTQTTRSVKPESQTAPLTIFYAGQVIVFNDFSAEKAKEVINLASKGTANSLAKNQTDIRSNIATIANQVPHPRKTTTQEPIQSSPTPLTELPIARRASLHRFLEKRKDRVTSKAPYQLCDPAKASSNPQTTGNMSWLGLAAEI
Sequence of ti11a_arath TIFY11A (Q9LDU5 whole entry): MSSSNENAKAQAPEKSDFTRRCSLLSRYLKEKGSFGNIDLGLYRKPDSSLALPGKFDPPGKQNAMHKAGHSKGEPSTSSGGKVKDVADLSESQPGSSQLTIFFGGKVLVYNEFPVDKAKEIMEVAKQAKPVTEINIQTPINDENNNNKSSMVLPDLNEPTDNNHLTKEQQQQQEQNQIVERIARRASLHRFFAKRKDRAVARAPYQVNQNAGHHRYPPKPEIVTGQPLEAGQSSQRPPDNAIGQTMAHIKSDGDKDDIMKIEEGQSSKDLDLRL
Sequence of ti10b_arath TIFY10B (Q9S7M2 whole entry): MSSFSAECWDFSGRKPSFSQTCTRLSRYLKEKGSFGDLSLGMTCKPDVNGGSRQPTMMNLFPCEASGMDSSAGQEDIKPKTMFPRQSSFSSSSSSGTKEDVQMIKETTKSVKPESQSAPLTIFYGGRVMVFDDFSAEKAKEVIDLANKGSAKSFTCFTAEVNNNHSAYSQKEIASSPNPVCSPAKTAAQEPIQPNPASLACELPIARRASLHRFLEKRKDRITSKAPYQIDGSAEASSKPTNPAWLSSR
Sequence of ti11b_arath TIFY11B (Q9C9E3 whole entry): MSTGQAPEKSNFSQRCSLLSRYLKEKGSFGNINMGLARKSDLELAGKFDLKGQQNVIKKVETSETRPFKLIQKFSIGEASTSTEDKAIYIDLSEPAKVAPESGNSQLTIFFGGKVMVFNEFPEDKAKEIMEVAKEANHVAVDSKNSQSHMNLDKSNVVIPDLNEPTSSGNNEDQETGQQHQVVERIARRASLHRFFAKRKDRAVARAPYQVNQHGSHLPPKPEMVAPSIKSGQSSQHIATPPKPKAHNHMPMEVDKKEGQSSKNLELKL

Turning to “Transcription factor MYC3 (Arabidopsis thaliana (Mouse-ear cress)), Q9FIP9 W92A;Y97A”, the “effect of a mutation on the interaction” value with ti10b_arath TIFY10B is “disrupting interaction strength”; in the test with tif5a_arath TIFY5A, “decreasing interaction strength”; with tif6b_arath TIFY6B, “disrupting interaction strength”; with ti11b_arath TIFY11B, “disrupting interaction strength”; with tif3b_arath TIFY3B, “disrupting interaction strength”; with tif6a_arath TIFY6A it was “disrupting interaction strength”. Also, the “effect of a mutation on the interaction” value in the test with tif3a_arath TIFY3A is recorded as “decreasing interaction strength”; with ti11a_arath TIFY11A it was “disrupting interaction strength”; in the test with tif7_arath TIFY7 it was “disrupting interaction strength”; with ti10a_arath TIFY10A, “decreasing interaction strength”; with tif9_arath TIFY9 it was “decreasing interaction strength”.

(Values after IntAct's records for PubMed 26258305.)
